The values below come from patent US20220000998A1.

Test [1] has as its target SM083P004 (Clostridium tetani).
Test [2] deals with MTTE peptide (minimal tetanus toxin epitope), biotinylated (Clostridium tetani).

B1: scFv Y-SM083-p04-D04 (scFv)
scFv: EVQLLESGGGLVQPGGSLRLSCAASGFTFSGYYMYWVRQAPGKGLEWVSYIGYSGGGTGYADSVKGRFTISRDNSKNTLYLQMNSLRAEDTAVYYCARVPFGAFDYWGQGTLVTVSSGGGGSGGGGSGGGGSDIQMTQSPSSLSASVGDRVTITCRASQSISSYLNWYQQKPGKAPKLLIYAASSLQSGVPSRFSGSGSGTDFTLTISSLQPEDFATYYCQQYYGFPYTFGQGTKLEIK
For orientation: Kd means the equilibrium constant for the complex coming apart. A higher Kd goes with weaker binding. For orientation: koff means the first-order rate constant of dissociation. The kon is the second-order rate constant of association. Read a high kon as faster complex formation. In test [1], B1 gave a Kd of 3.3 nM, an off-rate constant (koff) of 0.00043 s⁻¹ and a kon of 130000 M⁻¹ s⁻¹.

B2: IBIIICI-b scFv (scFv)
scFv: EVRLLQSGAALVRPGASVKLSCTASGFNIKDFNIHWVKQRPEQGLEWIGRIDPENGDAEYVPKFQVRATMTTDTSSNTVYLHLSSLTSGDTAVYYCTTGSYDLDVEYWGQGTTLTVSSGGGGSGGGGSGGGGSGGGGSELQMTQSPSSLSASLGDTVTITCHASQNINVWLSWYQQRPGNIPKLLIYKASTLHTGVPSRFRGSGSGTGFTLTISSLQPEDIATYYCQQGQSYPLTFGAGTKLELK
On to B2, for which, in test [2], the Kd came out at 0.52 nM, the koff was determined as 0.00048 s⁻¹ and the kon was determined as 920000 M⁻¹ s⁻¹.

B3: 14GIIICII-b scFv (scFv)
scFv: QVQLQQPGAELVMPGASVNLSCKASGYTFTDYWMHWVKQRPGQGLEWIGEIDPSDNFSNLNQNFRGKATLTVDKSSRTAFLQLSSLTSEDSAVYYCAVEDYWGQGTTLTVSSGGGGSGGGGSGGGGSGGGGSDIVMTQATPSVLVTPGEAVSISCRASRSLLHSNGITYLYWFLQRPGQSPQVLIYRMSNLVSGVPDRFSGSGSGTAFTLRISRVEAEDVGVYYCMQHLEFPYTFGGGTKLEIK
In test [2], B3 registered a Kd of 1.8 nM, a koff of 0.00032 s⁻¹ and a kon of 180000 M⁻¹ s⁻¹.
